Laboratory results reported in patent US20230272016A1, “PEPTIDES FOR IMMUNOTHERAPY” (Second Genome, Inc., priority 2020, published 2023).

Assays:
[1] = molecular target: T1, CD2 (cluster of differentiation 2) (Homo sapiens, UniProt P06729); assay: Pull-down and mass spectrometry target capture; assay type: binding; details: 100.0 = no target protein observed in the control pulldown
T1 construct: endogenous in cells
T1 sequence (P06729 25-351): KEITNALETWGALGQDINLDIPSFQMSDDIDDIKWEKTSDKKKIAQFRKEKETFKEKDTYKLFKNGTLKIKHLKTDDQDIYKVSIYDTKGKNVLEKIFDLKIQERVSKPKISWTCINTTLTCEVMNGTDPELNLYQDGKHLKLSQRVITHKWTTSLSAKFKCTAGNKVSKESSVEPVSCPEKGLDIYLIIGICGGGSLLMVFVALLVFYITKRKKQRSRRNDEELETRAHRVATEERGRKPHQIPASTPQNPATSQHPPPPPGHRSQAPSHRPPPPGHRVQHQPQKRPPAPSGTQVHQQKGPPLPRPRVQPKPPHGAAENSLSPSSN
Method: (§1) To identify binding partners of SG-3-0020 in human cells, pull-down and mass spectrometry analysis were used (FIG. 15). Multiple target capture experiments were performed with SG-3-0020 and controls. Binding conditions and cross-linkers were varied to achieve maximum enrichment of peptide over controls. Nine putative binding partners to SG-3-0020 were identified using MS and were nominated for confirmation using CRISPR Knock Out (KO) Experiments (Table 12, FIG. 16). The enrichment ratio was calculated as described below: […]

Prohibitin = molecular target: T2, Prohibitin (Homo sapiens, UniProt P35232); assay: Pull-down and mass spectrometry target capture; assay type: binding; details: 100.0 = no target protein observed in the control pulldown
T2 construct: endogenous in cells
T2 sequence (P35232 1-272): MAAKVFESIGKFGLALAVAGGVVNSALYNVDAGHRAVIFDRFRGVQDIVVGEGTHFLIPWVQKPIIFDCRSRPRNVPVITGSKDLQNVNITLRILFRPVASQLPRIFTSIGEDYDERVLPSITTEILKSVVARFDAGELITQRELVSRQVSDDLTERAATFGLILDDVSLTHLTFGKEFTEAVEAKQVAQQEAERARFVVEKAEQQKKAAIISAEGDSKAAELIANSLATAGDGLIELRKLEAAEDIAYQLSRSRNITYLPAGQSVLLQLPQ
Method: as §1

[2] = molecular target: T3, Tumor necrosis factor receptor superfamily member 4 (Homo sapiens, UniProt P43489); assay: Pull-down and mass spectrometry target capture; assay type: binding; details: 100.0 = no target protein observed in the control pulldown
T3 construct: endogenous in cells
T3 sequence (P43489 29-277): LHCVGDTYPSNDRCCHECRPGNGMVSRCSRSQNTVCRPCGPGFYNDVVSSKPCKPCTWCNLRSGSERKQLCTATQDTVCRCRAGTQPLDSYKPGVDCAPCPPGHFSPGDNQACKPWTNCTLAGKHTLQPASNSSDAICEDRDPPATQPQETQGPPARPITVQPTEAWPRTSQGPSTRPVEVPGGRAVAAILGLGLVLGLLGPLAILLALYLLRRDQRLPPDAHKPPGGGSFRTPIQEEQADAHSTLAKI
Method: as §1

[3] = molecular target: Cation-independent mannose-6-phosphate receptor (Homo sapiens, UniProt P11717); assay: Pull-down and mass spectrometry target capture; assay type: binding; set-up: endogenous in cells; details: 100.0 = no target protein observed in the control pulldown
Method: as §1

[4] = molecular target: Bone marrow stromal antigen 2 (Homo sapiens, UniProt Q10589); assay: Pull-down and mass spectrometry target capture; assay type: binding; set-up: endogenous in cells; details: 100.0 = no target protein observed in the control pulldown
Method: as §1

Teneurin-3 = Teneurin-3 (Homo sapiens, UniProt Q9P273); assay: Pull-down and mass spectrometry target capture; assay type: binding; set-up: endogenous in cells; details: 100.0 = no target protein observed in the control pulldown
Method: as §1

Tumor necrosis factor = Tumor necrosis factor (Homo sapiens, UniProt P01375); assay: Pull-down and mass spectrometry target capture; assay type: binding; set-up: endogenous in cells; details: 100.0 = no target protein observed in the control pulldown
Method: as §1

[5] = molecular target: Low-density lipoprotein receptor (Homo sapiens, UniProt P01130); assay: Pull-down and mass spectrometry target capture; assay type: binding; set-up: endogenous in cells; details: 100.0 = no target protein observed in the control pulldown
Method: as §1

Protein AMBP = assay: Pull-down and mass spectrometry target capture; assay type: binding, human; details: 100.0 = no target protein observed in the control pulldown
Method: as §1

[6] = system: primary human unstimulated T cells; assay: CRISPR knock-out target validation in T cells stimulated with anti-CD3 and peptide; assay type: cell-based; details: targets identified from mass spectrometry
Method: Functional validation was performed by CRISPR knock-out to confirm target effects on SG-3-0020-mediated activity. […] RNPs were introduced into primary human unstimulated T cells via Nucleofection and cells were cultured for 96 hours. OR1A1 served as negative control and CD3E was used as positive control. Post knock-down T cells were stimulated in vitro culture of Purified T cells with anti-CD3 (0.1 μg/mL) and SG-3-05429 (mutant SG-3-0020 with improved activity) (10 μM) and was incubated for 48 hours. A decrease in IFN-γ secretion (FIG. 17A) and a decrease in activated CD4 and CD8 T cell subsets was also observed (CD25+, PD-1+=Markers of T cell activation) (FIG. 17B) was observed after target knock-down compared to the negative control (OR1A1). […] Activation of CD2 has the potential to be a therapeutic opportunity.

[7] = system: naïve CD4+ and CD8+ T cells (Th0); details: incubation of a naïve T cell with the polypeptide; cited from earlier work
CXCR3 [8] = molecular target: T4, CXCR3 (human, UniProt P49682 1-368); assay: CXCR3 activity assay with ligand, with SG-3-00802 or SG-3-05021 added
T4 construct: whole, on cells; The reporter constructs are not described; also called CSCR3
T4 sequence (looked up): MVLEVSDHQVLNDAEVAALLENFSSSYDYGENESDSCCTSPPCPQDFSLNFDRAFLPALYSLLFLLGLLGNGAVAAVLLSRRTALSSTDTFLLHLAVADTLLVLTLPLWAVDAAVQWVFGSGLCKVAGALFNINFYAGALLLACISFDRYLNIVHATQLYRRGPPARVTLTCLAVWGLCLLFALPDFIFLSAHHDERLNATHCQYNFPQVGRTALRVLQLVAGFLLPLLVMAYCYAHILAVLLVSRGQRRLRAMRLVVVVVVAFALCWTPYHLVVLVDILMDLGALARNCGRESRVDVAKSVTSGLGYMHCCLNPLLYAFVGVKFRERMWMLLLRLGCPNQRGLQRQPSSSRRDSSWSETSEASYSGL

CXCR4 = CXCR4 (human, UniProt P61073 1-352); assay: cell-based or functional assay
HCRTR2 = molecular target: T5, HCRTR2 (human, UniProt O43614 1-444); assay: cell-based or functional assay
T5 sequence (looked up): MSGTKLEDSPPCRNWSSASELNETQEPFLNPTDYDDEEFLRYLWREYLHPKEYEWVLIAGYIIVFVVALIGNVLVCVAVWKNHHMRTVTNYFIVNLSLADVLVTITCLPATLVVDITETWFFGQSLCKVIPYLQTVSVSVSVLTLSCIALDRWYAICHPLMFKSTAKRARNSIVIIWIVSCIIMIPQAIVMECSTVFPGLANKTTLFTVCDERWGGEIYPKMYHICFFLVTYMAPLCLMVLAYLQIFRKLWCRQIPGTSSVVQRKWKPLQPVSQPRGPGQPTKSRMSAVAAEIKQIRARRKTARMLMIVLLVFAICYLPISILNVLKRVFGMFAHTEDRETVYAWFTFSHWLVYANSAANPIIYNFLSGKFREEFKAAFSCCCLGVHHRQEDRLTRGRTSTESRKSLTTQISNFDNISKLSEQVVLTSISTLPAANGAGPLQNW

CXCR3 [9] = molecular target: T4, CXCR3; assay: cell-based or functional assay
TSHR(L) = TSHR(L) (human, UniProt P16473-1 21-764, limits assumed); assay: cell-based or functional assay
MRGPRX2 = molecular target: T6, MRGPRX2 (human, UniProt Q96LB1 1-330); assay: cell-based or functional assay
T6 sequence (looked up): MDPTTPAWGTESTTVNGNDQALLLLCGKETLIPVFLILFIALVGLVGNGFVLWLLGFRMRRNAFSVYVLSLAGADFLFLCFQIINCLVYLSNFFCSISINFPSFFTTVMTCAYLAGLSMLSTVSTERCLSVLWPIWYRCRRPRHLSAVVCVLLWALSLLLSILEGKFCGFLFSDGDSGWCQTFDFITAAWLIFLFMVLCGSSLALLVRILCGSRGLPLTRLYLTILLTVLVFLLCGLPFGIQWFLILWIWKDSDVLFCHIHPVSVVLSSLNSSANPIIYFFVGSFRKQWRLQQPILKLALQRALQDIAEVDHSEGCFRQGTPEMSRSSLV

SSTR1 = SSTR1 (human, UniProt P30872 1-391); assay: cell-based or functional assay
CCR9 = molecular target: T7, CCR9 (human, UniProt P51686 1-369, limits assumed); assay: cell-based or functional assay
T7 sequence (looked up): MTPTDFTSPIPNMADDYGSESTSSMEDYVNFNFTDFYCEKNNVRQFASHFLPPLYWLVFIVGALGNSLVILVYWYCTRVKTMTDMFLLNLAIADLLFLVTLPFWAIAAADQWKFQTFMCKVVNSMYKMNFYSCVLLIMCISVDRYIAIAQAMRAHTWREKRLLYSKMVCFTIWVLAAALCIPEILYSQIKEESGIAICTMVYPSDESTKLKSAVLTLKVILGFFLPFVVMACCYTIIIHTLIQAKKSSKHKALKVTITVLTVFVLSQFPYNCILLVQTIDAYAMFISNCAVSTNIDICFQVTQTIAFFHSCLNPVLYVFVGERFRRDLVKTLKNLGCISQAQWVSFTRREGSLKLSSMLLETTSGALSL

CHRM5 = molecular target: T8, CHRM5 (human, UniProt P08912 1-532); assay: cell-based or functional assay
T8 sequence (looked up): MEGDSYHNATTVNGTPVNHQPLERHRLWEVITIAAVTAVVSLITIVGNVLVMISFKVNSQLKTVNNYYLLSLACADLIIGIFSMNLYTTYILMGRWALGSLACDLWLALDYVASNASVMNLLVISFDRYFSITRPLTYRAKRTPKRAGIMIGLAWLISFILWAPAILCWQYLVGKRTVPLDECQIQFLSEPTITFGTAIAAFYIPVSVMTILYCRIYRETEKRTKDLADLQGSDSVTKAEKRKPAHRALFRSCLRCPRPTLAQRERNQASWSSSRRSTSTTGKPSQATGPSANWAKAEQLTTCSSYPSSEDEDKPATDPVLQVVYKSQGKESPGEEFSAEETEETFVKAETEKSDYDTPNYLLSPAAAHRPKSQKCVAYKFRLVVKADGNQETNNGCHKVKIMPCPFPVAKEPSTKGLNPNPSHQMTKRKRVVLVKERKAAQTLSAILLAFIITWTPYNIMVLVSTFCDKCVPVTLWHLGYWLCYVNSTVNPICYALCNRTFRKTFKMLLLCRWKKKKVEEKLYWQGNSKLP

Chain of SSTR1 (P30872 whole entry): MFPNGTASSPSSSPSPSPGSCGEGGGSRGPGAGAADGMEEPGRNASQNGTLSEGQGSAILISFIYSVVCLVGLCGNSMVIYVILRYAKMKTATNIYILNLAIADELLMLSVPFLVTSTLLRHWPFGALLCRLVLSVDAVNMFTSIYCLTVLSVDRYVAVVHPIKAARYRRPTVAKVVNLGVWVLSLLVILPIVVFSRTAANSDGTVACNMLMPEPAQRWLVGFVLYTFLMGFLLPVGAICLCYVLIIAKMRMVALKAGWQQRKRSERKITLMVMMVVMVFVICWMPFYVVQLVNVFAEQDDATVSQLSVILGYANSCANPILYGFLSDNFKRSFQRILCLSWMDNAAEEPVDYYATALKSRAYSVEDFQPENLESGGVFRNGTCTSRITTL
Chain of TSHR(L) (P16473 21-764 limits assumed): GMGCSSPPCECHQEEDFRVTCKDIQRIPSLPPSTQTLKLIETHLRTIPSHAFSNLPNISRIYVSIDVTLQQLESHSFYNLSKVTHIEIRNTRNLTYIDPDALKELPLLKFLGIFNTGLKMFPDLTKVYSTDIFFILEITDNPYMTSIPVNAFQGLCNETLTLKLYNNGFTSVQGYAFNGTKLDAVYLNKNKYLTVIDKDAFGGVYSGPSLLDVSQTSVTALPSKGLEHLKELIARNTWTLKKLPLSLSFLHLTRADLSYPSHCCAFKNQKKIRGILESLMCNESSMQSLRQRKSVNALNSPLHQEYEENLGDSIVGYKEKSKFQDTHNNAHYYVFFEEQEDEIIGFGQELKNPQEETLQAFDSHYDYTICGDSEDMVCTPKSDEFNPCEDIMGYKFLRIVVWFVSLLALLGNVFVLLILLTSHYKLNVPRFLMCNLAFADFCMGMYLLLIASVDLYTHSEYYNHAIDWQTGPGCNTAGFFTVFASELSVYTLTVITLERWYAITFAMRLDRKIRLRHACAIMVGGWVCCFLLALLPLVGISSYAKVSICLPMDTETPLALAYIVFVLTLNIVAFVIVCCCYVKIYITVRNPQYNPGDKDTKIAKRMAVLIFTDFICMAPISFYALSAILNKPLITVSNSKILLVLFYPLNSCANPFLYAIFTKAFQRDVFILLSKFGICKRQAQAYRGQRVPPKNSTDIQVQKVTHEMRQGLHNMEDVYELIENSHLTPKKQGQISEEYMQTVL
Chain of CXCR4 (P61073 whole entry): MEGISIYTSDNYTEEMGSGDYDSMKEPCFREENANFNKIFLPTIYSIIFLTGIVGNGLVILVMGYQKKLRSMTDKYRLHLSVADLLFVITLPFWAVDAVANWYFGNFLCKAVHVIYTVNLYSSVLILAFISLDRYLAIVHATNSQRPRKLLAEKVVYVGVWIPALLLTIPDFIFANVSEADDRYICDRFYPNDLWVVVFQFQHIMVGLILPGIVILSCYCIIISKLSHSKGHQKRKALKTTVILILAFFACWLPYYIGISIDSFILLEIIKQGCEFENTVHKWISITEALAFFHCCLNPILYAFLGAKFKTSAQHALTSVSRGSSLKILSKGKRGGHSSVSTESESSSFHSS
Chain of Low-density lipoprotein receptor (P01130 22-860): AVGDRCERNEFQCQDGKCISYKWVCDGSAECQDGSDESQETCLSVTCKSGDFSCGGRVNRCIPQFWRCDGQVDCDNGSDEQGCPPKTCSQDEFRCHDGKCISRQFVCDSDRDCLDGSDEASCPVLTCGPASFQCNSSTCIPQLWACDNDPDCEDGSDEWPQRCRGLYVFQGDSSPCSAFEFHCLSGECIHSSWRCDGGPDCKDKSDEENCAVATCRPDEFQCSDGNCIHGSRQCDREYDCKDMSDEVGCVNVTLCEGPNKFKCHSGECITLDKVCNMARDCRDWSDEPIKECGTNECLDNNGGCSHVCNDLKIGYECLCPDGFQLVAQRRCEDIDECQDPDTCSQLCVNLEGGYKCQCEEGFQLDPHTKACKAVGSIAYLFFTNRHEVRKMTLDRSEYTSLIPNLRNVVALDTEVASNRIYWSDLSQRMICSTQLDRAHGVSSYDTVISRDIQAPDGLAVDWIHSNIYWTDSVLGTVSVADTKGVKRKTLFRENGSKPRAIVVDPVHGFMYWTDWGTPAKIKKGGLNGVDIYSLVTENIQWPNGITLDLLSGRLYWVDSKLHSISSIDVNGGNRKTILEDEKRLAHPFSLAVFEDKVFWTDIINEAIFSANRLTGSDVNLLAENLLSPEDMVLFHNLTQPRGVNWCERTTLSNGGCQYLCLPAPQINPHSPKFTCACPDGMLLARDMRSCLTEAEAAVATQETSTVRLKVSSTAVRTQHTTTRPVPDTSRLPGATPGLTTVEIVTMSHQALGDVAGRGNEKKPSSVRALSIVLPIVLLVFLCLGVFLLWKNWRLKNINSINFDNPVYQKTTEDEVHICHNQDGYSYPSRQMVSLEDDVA
Chain of Bone marrow stromal antigen 2 (Q10589 1-161 limits assumed): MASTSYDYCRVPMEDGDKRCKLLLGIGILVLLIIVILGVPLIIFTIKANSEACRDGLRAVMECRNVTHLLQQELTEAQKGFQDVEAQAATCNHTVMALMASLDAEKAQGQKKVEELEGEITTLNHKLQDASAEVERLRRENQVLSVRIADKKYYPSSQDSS
Chain of Tumor necrosis factor (P01375 whole entry): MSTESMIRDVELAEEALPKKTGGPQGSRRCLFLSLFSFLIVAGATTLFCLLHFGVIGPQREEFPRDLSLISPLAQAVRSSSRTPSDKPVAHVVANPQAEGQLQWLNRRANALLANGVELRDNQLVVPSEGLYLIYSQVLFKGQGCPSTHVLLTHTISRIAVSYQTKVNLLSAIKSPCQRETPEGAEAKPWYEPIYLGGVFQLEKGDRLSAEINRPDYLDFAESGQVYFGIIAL

## MLSTKKTKTHDHYPCGRMRDPGWHDWRACLTHQGIEEDEWPV [SG-3-0020, Bifidobacterium polypeptide]
[1]
  Enrichment ratio: 1.9
Prohibitin
  Enrichment ratio: 1.9
[2]
  Enrichment ratio: 100.0
[3]
  Enrichment ratio: 2.1
[4]
  Enrichment ratio: 34.5
Teneurin-3
  Enrichment ratio: 3.4
Tumor necrosis factor
  Enrichment ratio: 67.2
[5]
  Enrichment ratio: 100.0
Protein AMBP
  Enrichment ratio: 69.1
[6]
  human targets confirmed via CRISPR KO experiments: CD2, BST2, and TNF
[7]
  number of CD4+ and/or CD8+ T cells having a CD25+/FoxP3− phenotype: increase

B1: CXCL11 (ligand, UniProt O14625 22-94, looked up)
chain: FPMFKRGRCLCIGPGVKAVKVADIEKASIMYPSNNCDKIEVIITLKENKGQRCLNPKSKQARLIIKKVERKNF
CXCR3 [8]
  binding result: binds

## MKVRPSVKPMCEKCKIIRRKGRVMVICENPKHKQRQG [SG-3-00802]
CXCR4
  % Agonist Activity, PathHunter β-arrestin: -14%
  % Antagonist Activity, PathHunter β-arrestin: 99%
HCRTR2
  % Agonist Activity, PathHunter β-arrestin: 0%
  % Antagonist Activity, PathHunter β-arrestin: 67%
CXCR3 [9]
  % Agonist Activity, PathHunter β-arrestin: -4%
  % Antagonist Activity, PathHunter β-arrestin: -32%
TSHR(L)
  % Agonist Activity, PathHunter β-arrestin: 3%
  % Antagonist Activity, PathHunter β-arrestin: 77%
MRGPRX2
  % Agonist Activity, PathHunter β-arrestin: 66%
  % Antagonist Activity, PathHunter β-arrestin: -9%
SSTR1
  % Agonist Activity, PathHunter β-arrestin: -137%
  % Antagonist Activity, PathHunter β-arrestin: 61%
CCR9
  % Agonist Activity, PathHunter β-arrestin: 2%
  % Antagonist Activity, PathHunter β-arrestin: -48%
CHRM5
  % Agonist Activity, PathHunter β-arrestin: 28%
  % Antagonist Activity, PathHunter β-arrestin: 11%
